Assays:
[1] = Storage stability of lyophilized HV1C3 at 50° C., liquid chromatography peak area (Experiment Example 1); assay type: physicochemical; settings: glycine, mannitol
Method: Hirudin variant HV1C3 having the amino acid sequence shown by Sequence NO. 1 in the Sequence Table, glycine, and mannitol were dissolved in purified water to a final concentration of 6 mg/ml (0.86 mM), 6.7 mg/ml (89 mM), and 33.5 mg/ml (184 mM), respectively. The resulting solution was divided into six equal portions. These portions were adjusted to the pH shown in Table 1 with the addition of 30 mM of tartaric acid, phosphoric acid, or Tris buffer solution. The peptide solutions for which the pH was thus adjusted filtered through a 0.22 μm membrane filter. The filtrates were charged into 6 ml vials in the amount of 1 ml for each vial. 50 such vials were prepared for each pH of the solution, totaling 300 vials. All these 300 vials were lyophilized.
The lyophilized samples were stored in an incubator at 50° C. and removed from the incubator after 1, 2, 4, 6, 8 weeks, respectively. 1 ml of purified water was added to each vial removed. Solutions further diluted 50-fold were subjected to liquid chromatography to measure a peak area percentage of hirudin variant HV1C3 under the conditions shown in Table 2. The amount (percentage) of the hirudin variant HV1C3 remaining in the lyophilized sample, after having been stored in the incubator, compound with the amount of the hirudin variant HV1C3 contained at the beginning of the storage was determined.

[2] = Storage stability of lyophilized HV1C3 at 60° C., tartaric acid concentration (Experiment Example 4); assay type: physicochemical
Method: Hirudin variant HV1C3 and purified saccharose were dissolved in purified water to a final concentration of 6 mg/ml (0.866 mM) and 1.6 mg/ml (4.7 mM), respectively. The resulting solution was divided into four equal portions. Three of these portions were adjusted to pH 5.5 using 5 mM of tartaric acid, 10 mM of tartaric acid, and 30 mM of tartaric acid, respectively. Mannitol was added to a solution without pH adjustment to a concentration of 10 mg/ml (55 mM). These solutions were filtered through a 0.22 μm membrane filter. The filtrates were filled into 6 ml vials in the amount of 1 ml for each vial. 50 such vials were prepared for each pH of the solution, 200 vials in total. All these 200 vials were lyophilized.
The lyophilized samples were stored in an incubator at 60° C. and removed from the incubator after 1, 2, 3, 4, 5, and 6 weeks, respectively. 1 ml of purified water was added to each vial removed. The amount (percentage) of the hirudin variant HV1C3 remaining in the lyophilized sample was determined in the same manner as in Experiment Example 1.

[3] = tartaric acid 0 mM, without pH adjustment, mannitol 10 mg/ml, saccharose
[4] = tartaric acid 5 mM, pH 5.5, saccharose
[5] = tartaric acid 10 mM, pH 5.5, saccharose
[6] = tartaric acid 30 mM, pH 5.5, saccharose

B1: hirudin variant HV1C3: Hirudin variant having the amino acid sequence shown by Sequence No. 1 (JP Laid-open No. 173798/1992) (protein)
chain: VVYTDCTESGQNLCLCEGSNVCGQGNKCILGSDGEKNQCVTGEGTPKPQSHNQGDFEPIPEDAYDE
- Remaining peptide (%) 1 wk ([1]; pH 4.5, tartaric acid 30 mM): 98.0%
- Remaining peptide (%) 2 wks ([1]; pH 4.5, tartaric acid 30 mM): 97.7%
- Remaining peptide (%) 4 wks ([1]; pH 4.5, tartaric acid 30 mM): 95.4%
- Remaining peptide (%) 6 wks ([1]; pH 4.5, tartaric acid 30 mM): 94.7%
- Remaining peptide (%) 8 wks ([1]; pH 4.5, tartaric acid 30 mM): 93.4%
- Remaining peptide (%) 1 wk ([1]; pH 5.5, tartaric acid 30 mM): 98.6%
- Remaining peptide (%) 2 wks ([1]; pH 5.5, tartaric acid 30 mM): 98.7%
- Remaining peptide (%) 4 wks ([1]; pH 5.5, tartaric acid 30 mM): 97.5%
- Remaining peptide (%) 6 wks ([1]; pH 5.5, tartaric acid 30 mM): 96.5%
- Remaining peptide (%) 8 wks ([1]; pH 5.5, tartaric acid 30 mM): 97.0%
- Remaining peptide (%) 1 wk ([1]; pH 6.0, phosphoric acid 30 mM): 98.4%
- Remaining peptide (%) 2 wks ([1]; pH 6.0, phosphoric acid 30 mM): 96.4%
- Remaining peptide (%) 4 wks ([1]; pH 6.0, phosphoric acid 30 mM): 95.1%
- Remaining peptide (%) 6 wks ([1]; pH 6.0, phosphoric acid 30 mM): 94.5%
- Remaining peptide (%) 8 wks ([1]; pH 6.0, phosphoric acid 30 mM): 93.6%
- Remaining peptide (%) 1 wk ([1]; pH 7.0, Tris buffer 30 mM): 95.7%
- Remaining peptide (%) 2 wks ([1]; pH 7.0, Tris buffer 30 mM): 92.0%
- Remaining peptide (%) 4 wks ([1]; pH 7.0, Tris buffer 30 mM): 86.8%
- Remaining peptide (%) 6 wks ([1]; pH 7.0, Tris buffer 30 mM): 72.0%
- Remaining peptide (%) 8 wks ([1]; pH 7.0, Tris buffer 30 mM): 70.3%
- Remaining peptide (%) 1 wk ([1]; pH 7.0, phosphoric acid 30 mM): 99.0%
- Remaining peptide (%) 2 wks ([1]; pH 7.0, phosphoric acid 30 mM): 97.3%
- Remaining peptide (%) 4 wks ([1]; pH 7.0, phosphoric acid 30 mM): 93.3%
- Remaining peptide (%) 6 wks ([1]; pH 7.0, phosphoric acid 30 mM): 92.7%
- Remaining peptide (%) 8 wks ([1]; pH 7.0, phosphoric acid 30 mM): 90.0%
- Remaining peptide (%) 1 wk ([1]; pH 8.0, Tris buffer 30 mM): 81.9%
- Remaining peptide (%) 2 wks ([1]; pH 8.0, Tris buffer 30 mM): 58.0%
- Remaining peptide (%) 1 wk [2, 3]: 97.0%
- Remaining peptide (%) 2 wks [2, 3]: 94.0%
- Remaining peptide (%) 3 wks [2, 3]: 92.0%
- Remaining peptide (%) 4 wks [2, 3]: 91.0%
- Remaining peptide (%) 5 wks [2, 3]: 87.8%
- Remaining peptide (%) 6 wks [2, 3]: 86.5%
- Remaining peptide (%) 1 wk [2, 4]: 98.8%
- Remaining peptide (%) 2 wks [2, 4]: 98.6%
- Remaining peptide (%) 3 wks [2, 4]: 97.6%
- Remaining peptide (%) 4 wks [2, 4]: 97.5%
- Remaining peptide (%) 5 wks [2, 4]: 97.0%
- Remaining peptide (%) 6 wks [2, 4]: 96.9%
- Remaining peptide (%) 1 wk [2, 5]: 98.5%
- Remaining peptide (%) 2 wks [2, 5]: 98.1%
- Remaining peptide (%) 3 wks [2, 5]: 97.2%
- Remaining peptide (%) 4 wks [2, 5]: 96.9%
- Remaining peptide (%) 5 wks [2, 5]: 96.4%
- Remaining peptide (%) 6 wks [2, 5]: 96.1%
- Remaining peptide (%) 1 wk [2, 6]: 97.9%
- Remaining peptide (%) 2 wks [2, 6]: 96.8%
- Remaining peptide (%) 3 wks [2, 6]: 96.1%
- Remaining peptide (%) 4 wks [2, 6]: 94.7%
- Remaining peptide (%) 5 wks [2, 6]: 94.1%
- Remaining peptide (%) 6 wks [2, 6]: 93.5%
